Assay [1] addresses arsenite oxidase (Aio) from Rhizobium sp. str. NT-26 with the AioB-F108A substitution (Rhizobium sp. str. NT-26). The experiment in a line: ITC; 750 μM reduced cytochrome c in the syringe injected (1.5 or 2 μL) into 75 μM reduced Aio in the cell; 50 mM Tris-HCl (pH 8), no NaCl, 25 °C; 1:1 binding fit; three enzyme preparations. On the technique in general: ITC needs no label: the signal is the heat of the interaction.

Assay [2] deals with arsenite oxidase (Aio) from Rhizobium sp. str. NT-26, wild type (Rhizobium sp. str. NT-26). The assay is described as above.
Assay [3] has the same target.

For orientation: Kd means a measure of binding affinity in units of concentration. What is called stoichiometry N is a count of units in the complex or per binding partner.

In assay [1], “horse heart cytochrome c (from UniProt P00004 1-105) (natural protein)” yielded a Kd of 7.8 µM, a dH (kcal mol^(− 1)) of 3 and a stoichiometry N of 0.82. In assay [2], this substance yielded a Kd of 2.3 µM, a dH (kcal mol^(− 1)) of 6 and a stoichiometry N of 0.85. In addition, in assay [3], the KM for cytochrome c, steady-state kinetics of Aio with 2.5 mM arsenite and 0.5-10 μM cytochrome c was 1 µM.

For the origin of these results see PMC5574378.
